This note sets out measurements from patent publication US8871909B2, “Antibodies inhibiting c-Met dimerization and uses thereof” (Pierre Fabre Medicament, priority 2007, dated 2014).

The target of assay [1] is T1, c-Met (Homo sapiens, UniProt P08581).
T1 construct: endogenous in cells; host or cells: A549
The experiment in a line: Phospho c-Met ELISA assay on A549 cells. The format is cell-based. The note with it: purified Mabs; for IC50, c-Met phosphorylation: 0.0015 to 30 μg/ml (0.01-200 nM); for agonist effect on c-Met phosphorylation, added alone / antagonist effect on c-Met phosphorylation in presence of HGF: A549, 30 μg/ml (200 nM), Example 18. As for the experimental part: To determine the activity of anti-c-Met antibodies on c-Met phosphorylation a phospho c-Met ELISA assay was set-up. Briefly 500 000 A549 cells were seeded in each well of 6-well plates in F12K medium+10% FCS. 16 hours before HGF addition (100 ng/ml), cells were starved and each antibody to be tested was added at a final concentration of 30 μg/ml 15 minutes before ligand stimulation. 15 minutes after HGF addition, cold lysis buffer was added, cells were scraped and cell lysates collected and centrifuged at 13 000 rpm for 10 min at 4° C. Supernatants were quantified with a BCA kit (Pierce) and stored at −20° C. For ELISA assay, a goat anti-c-Met antibody (R&D ref. AF276) was used as a capture antibody (coating overnight at 4° C.) and after a saturation step (1 h at RT) with a TBS-BSA 5% buffer, […] of protein from the different cell lysates was added to each well of the 96-well plate. After a 90 minute-incubation time at RT, plates were washed four times and an anti-phospho-c-Met antibody (Rabbit anti-pY1230-1234-1235 c-Met) was added. After an additional 1 hour incubation time and 4 washes an anti-rabbit-HRP (Biosource) was added for 1 hour at RT and then Luminol substrate was added before evaluation the luminescence with a Mithras device. […] As described in the various examples presented in this patent, this weak basal effect has no consequences on the activity of antibodies in other in vitro and in vivo tests.
In example 3, the effect of anti-c-Met Mabs on phosphorylation was assessed with dosed supernatants from each hybridoma to be evaluated. The test has been performed again with purified 11E1 and 224G11 Mabs that have been evaluated either at a final concentration of 30 μg/ml (200 nM) or at a dose range from 0.0015 to 30 μg/ml (0.01-200 nM) in order to determine the IC50 of each antibody. The protocol used is the same as the one described in example 3.

In assay [2] the test system is HUVEC. The experiment in a line: HUVEC proliferation ([3H]thymidine). The format is cell-based. The conditions noted are these: HGF 20 ng/ml, 0.15 to 40 μg/ml. The protocol:
For proliferation experiments, 7500 HUVEC were plated in each well of a 96 well plate previously coated with laminin. Cells were grown 24 hours of EMB-2 assay medium supplemented with 0.5% FBS and heparin. Then, MAbs to be tested (0.15 to 40 μg/ml) were added for 1 h before addition of 20 ng/ml of HGF. After 24 additional hours, cells were pulsed with 0.5 μCi of [^3H] Thymidine. The magnitude of [^3H] Thymidine incorporated was quantified by liquid scintillation counting. In This experiment the 9G4 MAb is an irrelevant antibody used as an IgG1 isotype control.

In assay [3] the target is T2, c-Met-Fc-Tag His (Homo sapiens, UniProt P08581).
T2 construct: c-Met extracellular domain fusion protein (10-15 g/dose/mouse) (R&D Systems, Catalog #358MT); purchased R&D systems 358-MT-CF
T2 sequence (P08581 25-932 limits assumed): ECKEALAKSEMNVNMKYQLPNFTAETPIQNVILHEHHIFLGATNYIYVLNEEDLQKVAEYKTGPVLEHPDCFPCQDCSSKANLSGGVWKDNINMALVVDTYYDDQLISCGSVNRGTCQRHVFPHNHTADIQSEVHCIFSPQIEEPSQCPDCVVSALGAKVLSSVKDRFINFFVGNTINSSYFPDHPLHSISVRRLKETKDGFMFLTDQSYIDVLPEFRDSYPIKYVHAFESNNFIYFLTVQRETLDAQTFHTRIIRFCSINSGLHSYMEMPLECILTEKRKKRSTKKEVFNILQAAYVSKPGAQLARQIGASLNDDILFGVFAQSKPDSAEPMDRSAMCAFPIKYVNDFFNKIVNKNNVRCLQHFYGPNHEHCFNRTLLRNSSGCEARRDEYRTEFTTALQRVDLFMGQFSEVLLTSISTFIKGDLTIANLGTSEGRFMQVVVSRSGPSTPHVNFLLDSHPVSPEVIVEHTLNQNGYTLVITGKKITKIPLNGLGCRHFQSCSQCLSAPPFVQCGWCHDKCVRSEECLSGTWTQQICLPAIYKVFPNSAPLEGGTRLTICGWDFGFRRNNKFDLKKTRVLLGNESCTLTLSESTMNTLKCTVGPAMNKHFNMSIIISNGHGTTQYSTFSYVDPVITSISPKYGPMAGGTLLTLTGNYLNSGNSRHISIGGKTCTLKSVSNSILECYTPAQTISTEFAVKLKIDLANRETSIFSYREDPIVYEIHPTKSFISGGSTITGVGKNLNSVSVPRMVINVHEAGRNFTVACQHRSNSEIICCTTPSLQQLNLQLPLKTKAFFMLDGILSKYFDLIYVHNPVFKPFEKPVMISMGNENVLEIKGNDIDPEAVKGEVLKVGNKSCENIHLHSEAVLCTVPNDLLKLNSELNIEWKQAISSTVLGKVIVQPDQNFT
Put plainly: BIAcore epitope mapping on captured c-Met-Fc. The class given is binding.
Description: A couple of antibodies unable to bind at the same time on the antigen molecule are classified in the same group (identical or neighbouring binding sites). At the opposite when their respective binding sites are sufficiently distant to allow a simultaneous binding of both antibodies these later are classified into two different groups. In such experiments, the antigen is commonly used as the ligand (immobilized on the sensorchip) and the antibodies are used without any labelling as analytes (solution phase).
All the experiments described have been done on a BIAcore X instrument (GE Healthcare Europe GmbH). A CM5 sensorchip (BIAcore) activated by a mouse anti-Tag-6His Mab (R&D System ref. MAB050) has been prepared following the manufacturer instructions by using the amine coupling kit (BIAcore). The running buffer (HBS-EP) and regeneration buffer (Glycine, HCl) are from BIAcore. A recombinant soluble version of the human HGF receptor produced as a chimeric molecule c-Met-Fc-Tag His was from R&D systems (ref. 358-MT-CF). […]
The ability of an antibody “A” to block the binding of an antibody “B” is calculated by the ratio BIA/C=(R2A/B/R1B)×100: where R2A/B is the response corresponding to the binding of the MAb “B” when it was injected after Mab “A” and R1B is the response corresponding to the binding of the MAb “B” when it was injected first. […]

Assay [4] concerns SK-HEP-1 cells. Put plainly: Scatter assay. The format is cell-based. The note with it: SK-HEP-1, antibody 10 μg/ml; for inhibitory effect on cell scattering in presence of HGF: HGF 100 ng/ml; for agonist effect on cell scattering, alone: no HGF. As for the experimental part:
SK-HEP-1 cells were seeded at low density (1·10^4 cells/well) in a 24-well plate in DMEM with 10% FCS and grown for 24 hours before addition, at the same time, of HGF (100 ng/ml) and antibodies to be tested (10 μg/ml). After 72 hours incubation, colonies were fixed and stained with 0.2% crystal violet in methanol and assessed for scattering visually. Each tested condition was tested as a triplicate and 3 independent experiments were performed.

The test system of assay [5] is NCI-H441. Put plainly: In vivo combination of 224G11 and Navelbine on NCI-H441 xenograft model (Example 19). The arrangement: species or system Athymic nude mice. The conditions noted are these: day 41 post first injection. As for the experimental part: NCI-H441 cells from ATCC were routinely cultured in RPMI 1640 medium, 10% FCS, 1% L-Glutamine. Cells were split two days before engraftment being in exponential phase of growth. Ten million NCI-H441 cells were engrafted to Athymic nude mice. […] Mice were treated i.p. either with a loading dose of 2 mg of 224G11 Mab/mouse and then twice a week with 1 mg of antibody/mouse until Day 38 or with 3 injections of Navelbine® (D5, D12, D19) at 8 mg/kg. A third group administered with the combine treatment was also included. Navelbine® was given by i.p. injections. Tumor volume was measured twice a week and calculated by the formula: π/6×length×width×height and animal weights were monitored every day over the period of Navelbine® treatment. Statistical analysis was performed at each measured time using either a t-test or a Mann-Whitney test. […] Results are represented in FIG. 45.

Assay [6] has as its system MDA-MB-231. The experiment in a line: MDA-MB-231 cells co-implanted with MRC5 cells xenograft. The format is in vivo, Athymic nude mice. The conditions noted are these: 2 mg loading dose then 1 mg twice a week i.p. The protocol:
[…] and MRC5 cells from ATCC were both cultured in DMEM medium, 10% FCS, 1% L-Glutamine. Cells were split two days before engraftment being in exponential phase of growth. Five million MDA-MB-231 cells and 500 000 MRC5 cells were co-injected s.c. to Athymic nude mice. […] Mice were treated i.p. either with a loading dose of 2 mg of 224G11 Mab/mouse and then twice a week with 1 mg of antibody/mouse. Tumor volume was measured twice a week and calculated by the formula: π/6×length×width×height.

Assay [7] deals with U87-MG. Put plainly: In vivo combination of 224G11 and Temozolomide on U87MG xenograft model. The note with it: D22 to D32; Temozolomide 5 mg/kg i.p. Details: species or system Athymic nude mice. As for the experimental part: U87-MG cells from ATCC were routinely cultured in DMEM medium, 10% FCS, 1% L-Glutamine. Cells were split two days before engraftment being in exponential phase of growth. Five million U87-MG cells were engrafted to Athymic nude mice. […] Mice were treated i.p. either with a loading dose of 2 mg of 224G11 Mab/mouse and then twice a week with 1 mg of antibody/mouse or with 3 injections of Temozolomide (D19, D26, D33) at 5 mg/kg. A third group administered with the combine treatment was also included. Temozolomide was given by i.p. injections. Tumor volume was measured twice a week and calculated by the formula: π/6×length×width×height and animal weights were monitored every day over the period of Temozolomide treatment. Statistical analysis was performed at each measured time using either a t-test or a Mann-Whitney test. […] Results are represented in FIG. 48.

T1 sequence (P08581 25-1390): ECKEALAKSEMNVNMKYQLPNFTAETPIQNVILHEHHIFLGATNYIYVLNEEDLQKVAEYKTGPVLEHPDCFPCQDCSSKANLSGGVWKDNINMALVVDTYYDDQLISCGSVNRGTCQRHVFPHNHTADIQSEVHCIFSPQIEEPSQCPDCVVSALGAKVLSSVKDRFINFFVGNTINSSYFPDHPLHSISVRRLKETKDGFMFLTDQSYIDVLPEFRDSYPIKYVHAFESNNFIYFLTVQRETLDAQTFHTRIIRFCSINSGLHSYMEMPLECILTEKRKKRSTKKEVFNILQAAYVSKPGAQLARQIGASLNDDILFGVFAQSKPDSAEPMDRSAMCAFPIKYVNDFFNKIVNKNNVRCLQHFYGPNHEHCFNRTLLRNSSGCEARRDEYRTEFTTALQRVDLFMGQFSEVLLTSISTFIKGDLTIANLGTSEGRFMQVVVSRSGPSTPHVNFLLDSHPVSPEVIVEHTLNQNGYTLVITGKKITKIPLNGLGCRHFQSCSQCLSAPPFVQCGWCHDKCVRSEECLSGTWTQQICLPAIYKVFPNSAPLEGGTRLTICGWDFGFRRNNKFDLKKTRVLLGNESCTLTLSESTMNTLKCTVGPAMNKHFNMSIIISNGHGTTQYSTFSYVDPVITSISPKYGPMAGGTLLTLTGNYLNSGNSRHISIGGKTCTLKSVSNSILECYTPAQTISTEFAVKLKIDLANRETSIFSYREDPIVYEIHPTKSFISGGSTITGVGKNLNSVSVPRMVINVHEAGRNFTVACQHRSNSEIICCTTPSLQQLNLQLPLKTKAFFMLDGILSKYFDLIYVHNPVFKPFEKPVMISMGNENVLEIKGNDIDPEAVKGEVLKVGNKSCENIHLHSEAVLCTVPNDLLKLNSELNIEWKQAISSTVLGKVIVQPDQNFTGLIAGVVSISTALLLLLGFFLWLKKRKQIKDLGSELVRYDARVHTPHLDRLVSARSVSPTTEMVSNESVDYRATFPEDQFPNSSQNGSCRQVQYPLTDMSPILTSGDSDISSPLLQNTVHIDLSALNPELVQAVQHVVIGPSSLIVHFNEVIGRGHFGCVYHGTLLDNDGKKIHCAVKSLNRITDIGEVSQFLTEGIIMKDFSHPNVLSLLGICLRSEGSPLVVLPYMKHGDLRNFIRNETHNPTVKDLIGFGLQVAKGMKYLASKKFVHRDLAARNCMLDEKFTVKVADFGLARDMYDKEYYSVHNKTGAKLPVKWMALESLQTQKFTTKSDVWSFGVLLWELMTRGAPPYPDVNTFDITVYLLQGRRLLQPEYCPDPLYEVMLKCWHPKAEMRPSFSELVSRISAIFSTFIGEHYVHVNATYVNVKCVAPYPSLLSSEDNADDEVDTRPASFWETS

B1: 11E1: murine anti-c-Met monoclonal antibody, IgG1 kappa; heavy chain SEQ ID No. 62, light chain SEQ ID No. 63 (antibody, V domains shown)
VH: QVQLQQSGAELAKPGASVKMSCKASGYTFTSYWMNWVKQRPGQGLEWIGYINPTTGSTDYNQKLKDKATLTADKSSNTAYMQLSSLTSEDSAVYYCAIGGYGSWFAYWGQGTLVTVSA
VL: QIVLTQSPAIMSASPGEKVTLTCSASSSVSSTYLYWYQQKPGSSPKLWIYTTSILASGVPARFSGSGSGTSYSLTISSMETEDAASYFCHQWSSYPFTFGSGTKLDIK
modifications: mus musculus
As for B1, in assay [1], the “IC50, c-Met phosphorylation” value is “nanomolar”; the “agonist effect on c-Met phosphorylation, added alone” value was “no agonist effect”; the “antagonist effect on c-Met phosphorylation in presence of HGF” value is listed as 87%. In assay [2], the “inhibition of HGF-induced HUVEC proliferation” value is “dramatic dose dependent inhibition”. For the same molecule, the “BIA/C ratio, 2nd Ab (B) 5D5” value in assay [3] (listed as antibody injected first (A), 5D5 second, 10 μg/ml, below 20% = blocks) is reported as 84.2%. Also, the “epitope mapping, binding sites” value in assay [3] (sequential injections of 5D5 and 11E1 on captured c-Met-Fc) was “bind clearly to two distant sites”. Also, in assay [4], the “inhibitory effect on cell scattering in presence of HGF” value is “very significant inhibitory effect” and the “agonist effect on cell scattering, alone” value was “No agonistic effect”.

B2: 224G11: murine anti-c-Met monoclonal antibody, IgG1 kappa; heavy chain SEQ ID No. 18, light chain SEQ ID No. 21 (antibody, V domains shown)
VH: EVQLQQSGPELVKPGASVKISCKTSGYIFTAYTMHWVRQSLGESLDWIGGIKPNNGLANYNQKFKGKATLTVDKSSSTAYMDLRSLTSEDSAVYYCARSEITTEFDYWGQGTALTVSS
VL: DIVLTQSPASLAVSLGQRATISCRASESVDSYANSFMHWYQQKPGQPPKLLIYRASNLESGIPARFSGSGSRTDFTLTINPVEADDVATYYCQQSKEDPLTFGSGTKLEMK
modifications: mus musculus
Take B2: in assay [1], the “IC50, c-Met phosphorylation” value was “nanomolar”; the “agonist effect on c-Met phosphorylation, added alone” value is given as “no agonist effect”; the “antagonist effect on c-Met phosphorylation in presence of HGF” value turned out to be 75%. Also, the “reduction of average tumor volume” value in assay [5] is 72%. Also, the “inhibition of HGF-induced HUVEC proliferation” value in assay [2] is on record as “dramatic dose dependent inhibition”. Also, in assay [4], the “inhibitory effect on cell scattering in presence of HGF” value is “very significant inhibitory effect” and the “agonist effect on cell scattering, alone” value is recorded as “No agonistic effect”. The “median tumors growth compared to the control group” value in assay [6] is given as “significant difference in median tumors growth”. In assay [7], the “anti-tumor activity compared to the control group” value is reported as “significant anti-tumor activity”.
